The target of the experiment is T1, 人Nectin-4 (human, UniProt Q96NY8 32-349).
T1 construct: construct not described; also called human Nectin-4; PVRL4
T1 sequence (looked up): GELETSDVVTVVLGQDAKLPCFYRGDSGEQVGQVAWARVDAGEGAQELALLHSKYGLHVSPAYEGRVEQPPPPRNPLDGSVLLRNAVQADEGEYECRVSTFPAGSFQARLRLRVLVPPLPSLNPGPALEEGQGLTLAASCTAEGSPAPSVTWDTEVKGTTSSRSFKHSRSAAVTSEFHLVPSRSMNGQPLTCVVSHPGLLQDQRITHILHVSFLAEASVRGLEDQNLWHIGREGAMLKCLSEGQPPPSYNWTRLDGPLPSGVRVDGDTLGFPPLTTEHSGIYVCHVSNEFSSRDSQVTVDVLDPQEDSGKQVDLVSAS
As to the kind of experiment: BLI, VHH-Fc on anti-hIgG Fc probe, human Nectin-4 as analyte. Set-up: 响应: unit not given here. On the technique in general: Biolayer interferometry detects binding as a change in optical thickness at a sensor tip.

B1: CMB7-10 (Fc fusion)
chain: QVQLVESGGGLVQAGESLRLSCAASGSIFSINAMAWYRQAPGKQRELVAAITSGGSTKYADSVKGRFTISRDNAKNTVYLQMNSLKPEDTAVYYCAAMDRTTLEYDYWGQGTLVTVSS
notes: Tested as VHH fused to human Fc; also called VHH-Fc; not shown: human Fc fused to the VHH
Consider B1, for which the Kd (in general, the free concentration of one partner at which half of the binding sites on the other are occupied at equilibrium, for simple one-to-one binding) was determined as 0.958 nM and the 响应 is 0.891.

B2: CMB7-19 (Fc fusion)
chain: QVQLVESGGGLVQAGGSLGLSCAASESIFSYNAMGWFRQAPGKQRELVAAITSGGSIKYADSVKGRFTISRDNAKNTVYLQMNSLKPEDRGVYYCAAMDRTTLEYDYWGQGTLVTVSS
notes: as for B1
In turn, B2 gave a 响应 of 0.867.

B3: CMB7-9 (Fc fusion)
chain: QVQLVESGGGLVQPGGSLRLSCAASGSIFSINAMGWYRQAPGKQRELVASITNGGSTKYDDSVKGRFTISRDNAKNTVYLQMNSLKPEDTAVYYCAAASLVVGGTWEYDTWGQGTLVTVSS
notes: as for B1
As to B3, the Kd turned out to be 0.53 nM and the 响应 came to 0.891.

B4: CMB7-22 (Fc fusion)
chain: QVQLVESGGGLVQAGGSLRLSCAASGSIFSINAMGWFRQAPGKQRELVAAITSGGSTNYAVSVKGRFTISSDKAKNTVYLQMNSLKPEDTAVYYCAAARGEPFEYEYWGQGTLVTVSS
notes: as for B1
Regarding B4, the 响应 came out at 0.841.

B5: CMB7-7 (Fc fusion)
chain: QVQLVESGGGLVQAGGSLRLSCAASGSIFSINAMGWFRQAPGKQRELAAAITSGGSTKYADSVKGRFTISRDNAKNTVYLQMNRLKPEDTGVYYCAAATGEPFEYNYWGQGTQVTVSS
notes: as for B1
In turn, B5 registered a 响应 of 0.972.

B6: CMB7-8 (Fc fusion)
chain: QVQLVESGGGLVQAGGSLRLSCAASGNIFSVNAMGWFRQAPGKQRELVAAITSGGSIRYVDSVKGRFTISRDNAKNTVYLQMNSLKPEDTAVYYCAAARGEPYEYDYWGQGTLVTVSS
notes: as for B1
For B6, the 响应 worked out at 0.915.

B7: CMB7-6 (Fc fusion)
chain: QVQLVESGGGLVQPGGSLRLSCAASGSIFSINVMGWYRQAPGKQRELVATITSGGSVNYADSVKGRFTISRDNANNTVYLQMNTLKPEDTAVYYCTADQLGPLGLLSPTIYWGQGTLVTVSS
notes: also called VHH 36; VHH-Fc; not shown: human Fc fused to the VHH
B7 had a 响应 of 0.835.

B8: CMB7-23 (Fc fusion)
chain: QVQLVESGGGLVQPGGSLRLSCAASGSDFTINVMGWYRQAPGKQRELVATVTSGGSLNYADSVKGRFTISRDNAKNTVYLQMNSLKPEDTAVYYCTADQFGPLGHLSPIIYWGQGTQVTVSS
notes: as for B1
B8 returned a 响应 of 0.877.

B9: CMB7-20 (Fc fusion)
chain: QVQLVESGGGLVQPGGSLRLSCAASGSIFSMNVMGWYRQAPGKQRELVATITSGGSTNYADSVKGRFTISRDNANNTVYLQMNSLKPEDTAVYYCTGDQLGPLGTFSPIVYWGQGTQVTVSS
notes: as for B1
For B9, the 响应 came out at 0.783.

B10: CMB7-18 (Fc fusion)
chain: QVQLVESGGGLVQAGGSLRLSCAASGSIFSINAMGWHRQGPGDQRELVAAITSGGSTKYVDSVKGRFTISRDNAKNTVYLQMNSLKPEDTGVYYCAAMGGSYEYDYWGQGTQVTVSS
notes: as for B1
Molecule B10 returned a dissociation constant (Kd) of 0.81 nM and a 响应 of 0.729.

B11: CMB7-11 (Fc fusion)
chain: QVQLVESGGGLVQAGGSLRLSCAASGSIFSISAMGWFRQAPGNQREMVAAITKGGSVNYADSVKGRFTITRDNAKNTVYLQMNSLKPEDTAVYYCAAAVGAPFEYDYWGQGTQVTVSS
notes: as for B1
On to B11, for which the 响应 worked out at 0.94.

B12: CMB7-12 (Fc fusion)
chain: QVQLVESGGGLVQPGGSLRLACAASGSIFSINVMGWYRQAPGKQREYVASVSRGGSVKYVDSVKGRFTVSRDNAKNTMYLEMNSLKPEDTAIYFCGAETKMGRGFDSWGQGTQVTVSS
notes: as for B1
As to B12, the 响应 turned out to be 0.97.

The values are drawn from patent CN114671953A (BORGI BIOMEDICAL SCIENCE AND TECH HANGZHOU LIMITED COMPANY, dated 2022).
